The source of these data is article PMC12724367 (Applied and Environmental Microbiology, 2025).

In data set [1] the target is T1, PdG-D-LDH (Nocardiopsis eucommiae, UniProt A0A975LBX7).
T1 construct: gene KGD82_12890; N-terminal His6 tag (pET15b), codon-optimised synthetic gene, E. coli Tuner; no tag cleavage told; homodimer (97 kDa) fraction
The data set is described as follows: product inhibition, DCIP reduction assay. Type of data set: biochemical.

The target of data set [2] is T1, PdG-D-LDH. The data set is described as follows: X-ray crystal structure of complex (soak). Format: binding. The settings on record: 20 mM D-lactate soaked 10 min; active site, coordinated to Fe(II).
Data set [3] concerns the target T1, PdG-D-LDH. The data set is described as follows: X-ray crystal structure; HPLC of released flavin. Format: binding. The conditions noted are these: non-covalent, active site; co-purified.
Substrate in data set [4]: C[C@H](O)C(=O)O
The data set is described as follows: purified protein. The conditions noted are these: 0.075 mM DCIP as electron acceptor, 100 mM glycine-NaOH, pH 9, 25 °C.

Substrate in data set [5]: C[C@@H](O)C(=O)O
The data set is described as follows: purified protein. The conditions noted are these: 0.075 mM DCIP as electron acceptor, 100 mM glycine-NaOH, pH 9, 25 °C.

Substrate in data set [6]: O=C1C=C(S(=O)(=O)O)c2ccccc2C1=O
The data set is described as follows: apparent steady-state kinetics, absorbance. Format: biochemical, Nocardiopsis eucommiae. The settings on record: electron acceptor, 20 mM sodium D-lactate, 100 mM phosphate, pH 7.5, 25 °C. The source says: apparent steady-state kinetics, absorbance on PdG-D-LDH

Substrate in data set [7]: O=C1C=CC(=O)C=C1
The data set is described as follows: purified protein. Format: biochemical, Nocardiopsis eucommiae. The settings on record: electron acceptor, 20 mM sodium D-lactate, 100 mM phosphate, pH 7.5, 25 °C.

As usually defined, the IC50 is the concentration needed to halve the response being measured. The low end stands for greater potency, the high end for weaker potency. As for `CC(=O)C(=O)O` [pyruvate], it took 53 mM to reach half-maximal inhibition on PdG-D-LDH [1] (IC50). That is a millimolar value.

In the case of `C[C@@H](O)C(=O)O` [D-lactate], the “X-ray crystal structure of complex (soak)” value at PdG-D-LDH [2] is “a metal ion and the substrate D-lactate (in PdG-D-LDH-lactate complex) are clearly defined”.

As to `Cc1cc2nc3c(=O)[nH]c(=O)nc-3n(C[C@H](O)[C@H](O)[C@H](O)COP(=O)(O)OP(=O)(O)OC[C@H]3O[C@@H](n4cnc5c(N)ncnc54)[C@H](O)[C@@H]3O)c2cc1C` [FAD], the “X-ray crystal structure; HPLC of released flavin” value at PdG-D-LDH [3] is on record as “The structure contains a non-covalently bound FAD at the active site”.

B1: PdG-D-LDH (Nocardiopsis eucommiae) (protein)
chain: MPGVVEELVAAIGTEQVVTDPAVMEGYSHDEAEWAPYGAPAAVVRPRDTADVAAVVRVCARSGVAVVGRGAGTGLSGAANSGRGWVVVSFERMNRVLEVDTVQQTATVQPGVVNDDLRARVAQDGLWYPPDPASAPWSTIGGNVATNAGGLCCVKYGVTRDYVLGMEAVVGTGEVVRLGRTTAKGVTGYDLAGLMVGSEGTLGLVTEVTLRLVPLRRGVEHTVVGYFDSLTDAGRAVAAVSAAGIVPSALELIDRFCLQAVDEWKNMGLSAEGEVLLLARSDLPGASGQEEADRILECFEQEKAVYAVRSTDKEEAEALFQARRLAYPALERLGPLLTEDVCVPKARVPHMLEAIEAAGERFDTRIGNIAHAGDGNLHPLFIVPAGDEEAKRRAKQAFEVIVDEALAVGGTVTGEHGVGLLKMRGAADELGPHVLAMHRAVKGALDPEGIFNPGKVFALEEA
notes: N-terminal His6 tag (pET15b), codon-optimised synthetic gene, E. coli Tuner; no tag cleavage told; homodimer (97 kDa) fraction
As usually defined, the Km is the concentration of substrate that gives half-maximal velocity. A word on the kcat: it is the number of substrate molecules converted per active site and unit of time at saturation. One may read the kcat/Km as the second-order rate constant that governs catalysis at low substrate concentration. Consider B1, for which the Km in “purified protein [4]” turned out to be 59000 ± 5000 µM; in “purified protein [5]”, 1000 ± 100 µM; in data set [6], 80 ± 10 µM; in “purified protein [7]” it was 20 ± 10 µM. The kcat in “purified protein [4]” turned out to be 4.7 s⁻¹; in the data set “purified protein [5]”, 8.2 s⁻¹; in data set [6], 0.95 ± 0.04 s⁻¹; in “purified protein [7]”, 1.8 ± 0.1 s⁻¹. The kcat/Km in the data set “purified protein [4]” stood at 79 M⁻¹ s⁻¹; in the data set “purified protein [5]”, 8000 M⁻¹ s⁻¹; in data set [6], 12000 ± 2000 M⁻¹ s⁻¹; in “purified protein [7]”, 80000 ± 30000 M⁻¹ s⁻¹.
